# Measurements reported in US20190177416A1 (NANOMAB TECHNOLOGY, published 2019).
# T1: PD-L2 (coated antigenic protein) (UniProt Q9BQ51 20-220, limits assumed)
# T1 sequence (looked up): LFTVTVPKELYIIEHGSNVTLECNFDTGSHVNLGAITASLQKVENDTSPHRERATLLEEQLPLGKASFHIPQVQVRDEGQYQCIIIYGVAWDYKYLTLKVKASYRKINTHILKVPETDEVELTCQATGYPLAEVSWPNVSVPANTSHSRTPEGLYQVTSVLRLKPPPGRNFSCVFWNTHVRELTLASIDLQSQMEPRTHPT
# How the values were obtained:
# [1] = molecular target: T2, human PD-L1 protein (coated antigen) (human, UniProt Q9NZQ7 19-238, limits assumed); assay: PE-ELISA on coated PD-L1
# T2 construct: Construct not described; also called PD-L1 antigen; antigenic protein PD-L1
# [2] = molecular target: T2, human PD-L1 protein (coated antigen); assay: ELISA, purified nanobody 10 ug/mL, coated PD-L1 against coated PD-L2
# Procedure: (§1) (1) Coated antigenic proteins PD-L1 and PD-L2: 0.5 μg per well (5 μg/mL, 100 μL), packaged NaHCO₃ (100 mM, pH8.2) was used as a blank control and overnight at 4° C. (2) Wash the cells three times with PBST the next day, add 200 μL of 1% BSA to block at room temperature for 2 hours. (3) Each purified nanobody was diluted to 10 μg/mL, and 100 pt of each of the purified nanobodies was incubated with the coated PD-L1, PD-L2 and the blank control group, and reacted at room temperature for 1 hour. (4) Unbound antibody was washed away with PBST, and 100 μL of mouse anti-HA tag antibody (1:2000 dilution) was added and placed at room temperature for 1 hour. (5) Unbound antibody was washed away with PBST, and anti-mouse alkaline phosphatase conjugate (1:2000 dilution) was added and placed at room temperature for 1 hour. (6) Wash the unbound antibody with PBST, add alkaline phosphatase coloring solution, and read the absorbance at 405 nm on an ELISA apparatus. The specificity of the nanobody was judged based on the absorption value.
# [3] = molecular target: T1, PD-L2 (coated antigenic protein); assay: ELISA, purified nanobody 10 ug/mL on coated PD-L2, anti-HA detection
# Procedure: as §1
# [4] = molecular target: T3, PD-L1 on 293F cells transiently transfected with the PD-L1 full-length gene (UniProt Q9NZQ7 19-290, limits assumed); assay: flow cytometry, 293F cells transiently transfected with PD-L1 or PD-L2
# T3 construct: whole, on cells; also called PD-L1 transient cells
# Procedure: In addition, the specificity of the PD-L1 nanobody was detected by flow cytometry. The PD-L1 full-length gene and the PD-L2 full-length gene were transiently transfected in a conventional 293F cell, and a nano-antibody (SEQ ID NO.: 1) of PD-L1 was selected for incubation for flow cytometry.
# [5] = molecular target: T2, human PD-L1 protein (coated antigen); assay: ELISA, purified nanobody 10 ug/mL on coated PD-L1, anti-HA detection
# Procedure: as §1
# [6] = molecular target: T2, human PD-L1 protein (coated antigen); assay: PE-ELISA, crude extract on coated PD-L1
# Outline: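 Phage clones were expressed with 1 mmol IPTG at 28° C overnight, and crude periplasmic antibody was applied to PD-L1-coated plates for 1 h at room temperature. Detection used anti-HA, then an alkaline phosphatase conjugate, read at 405 nm. A sample/control OD ratio above 3 marked a positive clone.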
# T2 sequence (Q9NZQ7 19-238 limits assumed): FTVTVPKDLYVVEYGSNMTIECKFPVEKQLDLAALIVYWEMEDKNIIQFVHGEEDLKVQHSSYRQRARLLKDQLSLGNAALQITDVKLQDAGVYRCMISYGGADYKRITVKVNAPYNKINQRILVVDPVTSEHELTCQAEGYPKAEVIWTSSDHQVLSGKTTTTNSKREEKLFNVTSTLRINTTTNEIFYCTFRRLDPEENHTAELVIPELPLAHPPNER
# T3 sequence (Q9NZQ7 19-290 limits assumed): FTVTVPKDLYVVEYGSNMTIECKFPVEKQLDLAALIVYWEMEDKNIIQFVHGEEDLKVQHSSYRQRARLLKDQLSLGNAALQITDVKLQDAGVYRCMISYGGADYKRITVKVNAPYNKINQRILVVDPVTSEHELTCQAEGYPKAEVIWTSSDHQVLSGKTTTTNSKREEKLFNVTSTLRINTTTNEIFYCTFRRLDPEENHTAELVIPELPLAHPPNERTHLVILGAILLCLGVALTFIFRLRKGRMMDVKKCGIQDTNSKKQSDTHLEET
Binder,binding result [1],other results
"SEQ ID NO 147 (VHH, pMECS-expressed; also called VHH numbered 147) VHH: QVQLQESGGGSVQAGGSLRLSCAASGYTSRPNFMVWFRQAPGKEREAVAGIYTVTGGTLYSDPVKGRFTISQDKAKNTVYLQMNSLNPEDTAMYYCAVKWYGGSWSDAATFRTWGRGTQVTVSS",binds,
"SEQ ID NO 144 (VHH, pMECS-expressed; also called VHH numbered 144) VHH: QVQLQESGGGSVQAGQSLRLSCTASGYTDSRYCMGWFRQAPGKERERVTTIHTGTGITYYADSVKGRFSISQDNAQNTMYLQMNSLEPEDTAMYYCATTDYVYSASASWCNGYGVFNNWGQGTQVTVSS",binds,
"SEQ ID NO 1 (VHH, pMECS-expressed; also called anti-PD-L1 nanobody No. 1; VHH numbered 1) VHH: QVQLQESGGGSVQTGGSLRLSCTASTSIYSNNYMAWFSQSPGKGREGVAAVYMDDGRPYYADSVKGRFTISLDSAKNTMYLQMNSLKPEDTAMYYCAAAPGPLSRNYWYTSANYDYWGQGTQVTVSS",,OD ratio (PD-L1/PD-L2) [2]: 32.2; ELISA absorbance (A405 nm) [3]: 0.118 A405 nm; fold difference (PD-L1 transient cells against PD-L2 transient cells) [4]: ≥ 550 times; ELISA absorbance (A405 nm) [5]: 3.8 A405 nm; OD ratio (experimental group (A405 nm)/control group (A405 nm)) [6]: > 20
"SEQ ID NO 150 (VHH, pMECS-expressed; also called VHH numbered 150) VHH: QVQLQESGGGLVQPGGSLRLSCAASGFTFSAYGMSWVRQAPGKGFEWVSTINSGGGTTFYADSVKGRFTISRDNAKNTLYLQLNSLRTEDTAMYYCRRCADIYCSLSGGWTGQGTQVTVSS",binds,

# Continued, in another order:
binding result [1],Binder,other results
binds,"SEQ ID NO 149 (VHH, pMECS-expressed; also called VHH numbered 149) VHH: QVQLQESGGGLVQAGGSLRLSCTASGFTFDDYSMGWFRQAPGKEREGISCIDWSGGRTNYGDSVKGRFTISRDNAKNTLYLQMNSLKPEDTAMYYCAANSAYSSCSLSTTHYKYWGQGTQVTVSS",
binds,"SEQ ID NO 148 (VHH, pMECS-expressed; also called VHH numbered 148) VHH: QVQLQESGGGSVQAGGSLRLSCAASGYSYNIDYMAWFRQAPGKEREGVAAIYTGSRRTYYSDSVKGRFAISQDNADNTVYLQMNALKPEDTAMYFCAALVSRPGRSWDKNEYRYWGQGTQVTVSS",
